Molecular target: HLA-B*44:05 (Homo sapiens, UniProt P01889, A223V/A65T/A93T/A95T/D201E/D98Y/E176V/E187L/E204Q/E69K/G107R/H137Y/K202T/L105A/L119I/N104T/N87E/Q56L/Q94N/R106L/R155S/R180D/S101N/S121R/S35A/S48T/T118I/V36M/W191S/Y91S)
Assay: MHC binding assay (UV-ligand exchange, β2m ELISA, peptide exchange yield)
Conditions: binding to HLA-B*44:05
From the text: Candidate peptides for T cell-based therapies according to the present invention were further tested for their MHC binding capacity (affinity). The individual peptide-MHC complexes were produced by UV-ligand exchange, where a UV-sensitive peptide is cleaved upon UV-irradiation and exchanged with the peptide of interest as analyzed. Only peptide candidates that can effectively bind and stabilize the peptide-receptive MHC molecules prevent dissociation of the MHC complexes. To determine the yield of the exchange reaction, an ELISA was performed based on the detection of the light chain (β2m) of stabilized MHC complexes. The assay was performed as generally described in Rodenko et al. (Rodenko et al., 2006)
96 well MAXISorp plates (NUNC) were coated over night with 2 μg/ml streptavidin in PBS at room temperature, washed 4× and blocked for 1 h at 37° C. in 2% BSA containing blocking buffer. Refolded HLA-A*02:01/MLA-001 monomers served as standards, covering the range of 15-500 ng/ml. Peptide-MHC monomers of the UV-exchange reaction were diluted 100-fold in blocking buffer. Samples were incubated for 1h at 37° C., washed four times, incubated with 2 μg/ml HRP conjugated anti-β2m for 1h at 37° C., washed again and detected with TMB solution that is stopped with […]. Absorption was measured at 450 nm.

Peptide exchange (MHC class I binding score, peptide exchange yield)	Substance
++ (>20% = ++)	1 (KEVDPASNTYTL; listed as Homo sapiens) [compound 1]
++ (>20% = ++)	2 (EEFLRPRSL; listed as Homo sapiens) [compound 2]
++ (>20% = ++)	3 (DEIFTNDRRW; listed as Homo sapiens) [compound 3]
++ (>20% = ++)	10 (SEYPTKNYV; listed as Homo sapiens) [compound 10]
+++ (>50 = +++)	14 (EMPGGPVW; listed as Homo sapiens) [compound 14]
+++ (>50 = +++)	21 (SEAKEIKSQL; listed as Homo sapiens) [compound 21]
++ (>20% = ++)	26 (EESSSPVDEY; listed as Homo sapiens) [compound 26]
+++ (>50 = +++)	27 (GETCVRITY; listed as Homo sapiens) [compound 27]
++ (>20% = ++)	34 (AEPPILYSEY; listed as Homo sapiens) [compound 34]
++ (>20% = ++)	38 (DEVRFFKGNKY; listed as Homo sapiens) [compound 38]
++ (>20% = ++)	46 (SELGLPKEV; listed as Homo sapiens) [compound 46]
+++ (>50 = +++)	50 (SEYVHSSFSGF; listed as Homo sapiens) [compound 50]
++ (>20% = ++)	52 (EDNPSGHTY; listed as Homo sapiens) [compound 52]
++++ (>75% = ++++)	55 (TEFHMQFSY; listed as Homo sapiens) [compound 55]
+++ (>50 = +++)	58 (KEMDPSRQSY; listed as Homo sapiens) [compound 58]
++ (>20% = ++)	64 (EEYQDSFERY; listed as Homo sapiens) [compound 64]
++ (>20% = ++)	65 (SESMVESKF; listed as Homo sapiens) [compound 65]
++ (>20% = ++)	67 (TEGAVEVKY; listed as Homo sapiens) [compound 67]
++ (>20% = ++)	74 (AELEGALQKA; listed as Homo sapiens) [compound 74]
+ (>10% = +)	75 (LETSCGSSTAY; listed as Homo sapiens) [compound 75]
++ (>20% = ++)	76 (RLNEHPSNNW; listed as Homo sapiens) [compound 76]

Peptide exchange (MHC class I binding score, peptide exchange yield)	Substance
+++ (>50 = +++)	77 (QETLAESTW; listed as Homo sapiens) [compound 77]
++ (>20% = ++)	81 (GEKATMQNL; listed as Homo sapiens) [compound 81]
+++ (>50 = +++)	84 (AETSYVKVLEY; listed as Homo sapiens) [compound 84]
+++ (>50 = +++)	85 (SEIDEKVTDL; listed as Homo sapiens) [compound 85]
+++ (>50 = +++)	86 (QTLKAMVQAW; listed as Homo sapiens) [compound 86]
++++ (>75% = ++++)	87 (GEARGDQVDW; listed as Homo sapiens) [compound 87]
++ (>20% = ++)	89 (KEFYPVKEF; listed as Homo sapiens) [compound 89]
+++ (>50 = +++)	90 (EESLLSSW; listed as Homo sapiens) [compound 90]
+++ (>50 = +++)	91 (EESLLSSWDF; listed as Homo sapiens) [compound 91]
+ (>10% = +)	92 (KEPSQSCIAQY; listed as Homo sapiens) [compound 92]
+++ (>50 = +++)	93 (SEAGLTANQY; listed as Homo sapiens) [compound 93]
++ (>20% = ++)	94 (SLAELIAKDW; listed as Homo sapiens) [compound 94]
++++ (>75% = ++++)	95 (AAFEDAQGHIW; listed as Homo sapiens) [compound 95]
+ (>10% = +)	96 (MDELEEGESY; listed as Homo sapiens) [compound 96]
++ (>20% = ++)	97 (ELVHMINW; listed as Homo sapiens) [compound 97]
+++ (>50 = +++)	98 (SEESAGPLL; listed as Homo sapiens) [compound 98]
++++ (>75% = ++++)	99 (SECVKSLSF; listed as Homo sapiens) [compound 99]
+++ (>50 = +++)	101 (SEENTGKTY; listed as Homo sapiens) [compound 101]
++++ (>75% = ++++)	102 (TELADLDAAW; listed as Homo sapiens) [compound 102]
++++ (>75% = ++++)	103 (AELFLTKSF; listed as Homo sapiens) [compound 103]
+++ (>50 = +++)	105 (EEIFKTLNY; listed as Homo sapiens) [compound 105]

Peptide exchange (MHC class I binding score, peptide exchange yield)	Substance
+++ (>50 = +++)	106 (SVISDSPRSW; listed as Homo sapiens) [compound 106]
++ (>20% = ++)	107 (YQENPRAAW; listed as Homo sapiens) [compound 107]
+++ (>50 = +++)	108 (QETNKVETY; listed as Homo sapiens) [compound 108]
+ (>10% = +)	110 (EVEVGEVKSW; listed as Homo sapiens) [compound 110]
++ (>20% = ++)	111 (QEIDQKRLEF; listed as Homo sapiens) [compound 111]
+++ (>50 = +++)	112 (AEIEADRSYQH; listed as Homo sapiens) [compound 112]
++ (>20% = ++)	113 (MEFKTLNKN; listed as Homo sapiens) [compound 113]
++++ (>75% = ++++)	114 (VEVNGVPRW; listed as Homo sapiens) [compound 114]
+++ (>50 = +++)	115 (QEPFTRPVL; listed as Homo sapiens) [compound 115]
+++ (>50 = +++)	116 (AEANPRDLGASW; listed as Homo sapiens) [compound 116]
+++ (>50 = +++)	117 (SEVPVDSHY; listed as Homo sapiens) [compound 117]
+++ (>50 = +++)	118 (SEVPVDSHYY; listed as Homo sapiens) [compound 118]
++++ (>75% = ++++)	119 (VEVKYEGHW; listed as Homo sapiens) [compound 119]
+ (>10% = +)	120 (VTEGAVEVKY; listed as Homo sapiens) [compound 120]
+++ (>50 = +++)	121 (YENIPVDKV; listed as Homo sapiens) [compound 121]
+++ (>50 = +++)	122 (GESVSWHLF; listed as Homo sapiens) [compound 122]
++ (>20% = ++)	123 (DEINHQSL; listed as Homo sapiens) [compound 123]
++++ (>75% = ++++)	124 (NENLDYAIL; listed as Homo sapiens) [compound 124]
+++ (>50 = +++)	125 (LEVLHQGQW; listed as Homo sapiens) [compound 125]
+++ (>50 = +++)	126 (SEASQSPQY; listed as Homo sapiens) [compound 126]
+++ (>50 = +++)	127 (RYFDENIQKFIW; listed as Homo sapiens) [compound 127]

Source: patent US12065471B2, “B*44 restricted peptides for use in immunotherapy against cancers and related methods” (Immatics Biotechnologies GmbH, priority 2018, dated 2024)
